Measurements from the supplement of paper PMC10567573.

B1: HDAC6 (parent)
chain: QYMNEGELRVLADTYDSVYLHPNS

Variants of: B1
Test: protein stability index of a GFP-peptide fusion (GPS, HEK-293T) (PSI 1-6); higher = more stable
Details: c terminus: a fixed tail appended
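Note: lentivirally expressed fusions sorted by FACS into six bins by GFP to DsRed ratio, PSI derived from sequencing read proportions per bin multiplied by bin number.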

Variant	protein stability index
QYMNEGELRVLADTSDSVYLHPNS	3.18
QYMNEGELRVLADTADSVYLHPNS	2.75
QYMNEGELRVLADTTDSVYLHPNS	2.82
QYMNEGELRVLADTHDSVYLHPNS	3.13
QYMNEGELRVLADTDDSVYLHPNS	3.86
QYMNEGELRVLADTMDSVYLHPNS	2.79
QYMNEGELRVLADTPDSVYLHPNS	1.9
QYMNEGELRVLADTCDSVYLHPNS	2.46
QYMNEGELRVLADTFDSVYLHPNS	1.83
QYMNEGELRVLADTLDSVYLHPNS	2.69
QYMNEGELRVLADTGDSVYLHPNS	2.6
QYMNEGELRVLADTWDSVYLHPNS	2.25
QYMNEGELRVLADTRDSVYLHPNS	3.05
QYMNEGELRVLADTYDSVGLHPNS	3.72
QYMNEGELRVLADTYDSVFLHPNS	2.11
QYMNEGELRVLADTYDSVPLHPNS	2.32
QYMNEGELRVLADTYDSVELHPNS	3.03
QYMNEGELRVLADTYDSVTLHPNS	3.2
QYMNEGELRVLADTYDSVWLHPNS	4.22
QYMNEGELRVLADTYDSVQLHPNS	3
QYMNEGELRVLADTYDSVSLHPNS	2.14
QYMNEGELRVLADTYDSVRLHPNS	1.59
QYMNEGELRVLADTYDSVILHPNS	1.79
QYMNEGELRVLADTYDSVDLHPNS	3.32

Variant	protein stability index
QYMNEGELRVLADTYDSVHLHPNS	2.45
QYMNEGELRVLADTYDSVCLHPNS	2.13
QYMNEGELRVLADTYDSVNLHPNS	2.62
QYMNEGELRVLADTYDSVKLHPNS	1.71
QYMNEGELRVLADTYDSVALHPNS	2.49
QYMNEGELRVLADTYDSVLLHPNS	2.1
QYMNEGELRVLADTYDSVVLHPNS	4.09
QYMNEGELRVLADTYDSVMLHPNS	1.9
QYMNEGELRVLADTYDSVYLHWNS	2.56
QYMNEGELRVLADTYDSVYLHKNS	1.96
QYMNEGELRVLADTYDSVYLHRNS	1.96
QYMNEGELRVLADTYDSVYLHQNS	1.58
QYMNEGELRVLADTYDSVYLHDNS	2.37
QYMNEGELRVLADTYDSVYLHNNS	1.38
QYMNEGELRVLADTYDSVYLHMNS	2.15
QYMNEGELRVLADTYDSVYLHINS	2.08
QYMNEGELRVLADTYDSVYLHANS	2.15
QYMNEGELRVLADTYDSVYLHSNS	1.68
QYMNEGELRVLADTYDSVYLHCNS	1.85
QYMNEGELRVLADTYDSVYLHLNS	1.3
QYMNEGELRVLADTYDSVYLHHNS	2.4
QYMNEGELRVLADTYDSVYLHVNS	1.83
QYMNEGELRVLADTYDSVYLHFNS	1.82
QYMNEGELRVLADTYDSVYLHYNS	1.41

Variant	protein stability index
QYMNEGELRVLADTYDSVYLHENS	2.13
QYMNEGELRVLADTYDSVYLHTNS	1.66
QYMNEGELRVLADTYDSVYLHGNS	2.27
QYMNEGELRVLADAYDSVYLHPNS	2.1
QYMNEGELRVLADCYDSVYLHPNS	2.54
QYMNEGELRVLADFYDSVYLHPNS	1.73
QYMNEGELRVLADPYDSVYLHPNS	2.53
QYMNEGELRVLADHYDSVYLHPNS	2.73
QYMNEGELRVLADQYDSVYLHPNS	3.12
QYMNEGELRVLADLYDSVYLHPNS	1.28
QYMNEGELRVLADKYDSVYLHPNS	1.76
QYMNEGELRVLADNYDSVYLHPNS	2.36
QYMNEGELRVLADRYDSVYLHPNS	2.51
QYMNEGELRVLADSYDSVYLHPNS	2.04
QYMNEGELRVLADDYDSVYLHPNS	2.84
QYMNEGELRVLADVYDSVYLHPNS	1.5
QYMNEGELRVLADWYDSVYLHPNS	1.43
QYMNEGELRVLADEYDSVYLHPNS	2.2
QYMNEGELRVLADYYDSVYLHPNS	2.92
QYMNEGELRVLADTYSSVYLHPNS	3.08
QYMNEGELRVLADTYTSVYLHPNS	1.8
QYMNEGELRVLADTYVSVYLHPNS	2.42
QYMNEGELRVLADTYESVYLHPNS	2.42
QYMNEGELRVLADTYWSVYLHPNS	4.07

Variant	protein stability index
QYMNEGELRVLADTYFSVYLHPNS	3.19
QYMNEGELRVLADTYCSVYLHPNS	4.03
QYMNEGELRVLADTYPSVYLHPNS	2.56
QYMNEGELRVLADTYDSAYLHPNS	2.56
QYMNEGELRVLADTYDSCYLHPNS	2.17
QYMNEGELRVLADTYDSFYLHPNS	2.23
QYMNEGELRVLADTYDSWYLHPNS	2.1
QYMNEGELRVLADTYDSMYLHPNS	2.25
QYMNEGELRVLADTYDSGYLHPNS	2.6
QYMNEGELRVLADTYDSQYLHPNS	3.02
QYMNEGELRVLADTYDSLYLHPNS	1.95
QYMNEGELRVLADTYDSKYLHPNS	2.63
QYMNEGELRVLADTYDSYYLHPNS	2.21
QYMNEGELRVLADTYDSHYLHPNS	2.68
QYMNEGELRVLADTYDSEYLHPNS	3.18
QYMNEGELRVLADTYDSDYLHPNS	2.87
QYMNEGELRVLADTYDSIYLHPNS	1.51
QYMNEGELRVLADTYDSRYLHPNS	2.63
QYMNEGELRVLADTYDSTYLHPNS	1.77
QYMNEGELRVLADTYDSNYLHPNS	2.98
QYMNEGELRVLADTYDSPYLHPNS	1.92
QYMNEGELRVLADTYDSSYLHPNS	2.88
